# Laboratory results taken from PMC3285688, “Active Site Mutations Change the Cleavage Specificity of Neprilysin” (PLoS ONE, 2012).
# Values joined by “and” are separate entries in the source; they are usually repeats but may differ in a detail not shown here. Equal entries are not always repeated.
# B1: NEP: secreted form of human NEP (shNEP) expressed as a C-terminal hexahistidine fusion protein (protein, UniProt P08473 52-750, looked up)
# extracellular domain: YDDGICKSSDCIKSAARLIQNMDATTEPCTDFFKYACGGWLKRNVIPETSSRYGNFDILRDELEVVLKDVLQEPKTEDIVAVQKAKALYRSCINESAIDSRGGEPLLKLLPDIYGWPVATENWEQKYGASWTAEKAIAQLNSKYGKKVLINLFVGTDDKNSVNHVIHIDQPRLGLPSRDYYECTGIYKEACTAYVDFMISVARLIRQEERLPIDENQLALEMNKVMELEKEIANATAKPEDRNDPMLLYNKMTLAQIQNNFSLEINGKPFSWLNFTNEIMSTVNISITNEEDVVVYAPEYLTKLKPILTKYSARDLQNLMSWRFIMDLVSSLSRTYKESRNAFRKALYGTTSETATWRRCANYVNGNMENAVGRLYVEAAFAGESKHVVEDLIAQIREVFIQTLDDLTWMDAETKKRAEEKALAIKERIGYPDDIVSNDNKLNNEYLELNYKEDEYFENIIQNLKFSQSKQLKKLREKVDKDEWISGAAVVNAFYSSGRNQIVFPAGILQPPFFSAQQSNSLNYGGIGMVIGHEITHGFDDNGRNFNKDGDLVDWWTQQSASNFKEQSQCMVYQYGNFSWDLAGGQHLNGINTLGENIADNGGLGQAYRAYQNYIKKNGEEKLLPGLDLNHKQLFFLNFAQVWCGTYRPEYAVNSIKTDVHSPGNFRIIGTLQNSAEFSEAFHCRKNSYMNPEKKCRVW
# modifications: extracellular domain C-terminal His6 tag
# notes: secreted form of human NEP (shNEP) expressed as a C-terminal hexahistidine fusion protein
# What was measured:
# [1] = target: secreted form of human neprilysin, mutant F563M (human); test: enzyme kinetics, competitive (alternate substrate) inhibition of Glut-Ala-Ala-Phe-MNA hydrolysis, Dixon plot; insulin B chain varied from 1 to 40 µM against hydrolysis of the fluorogenic substrate Glut-Ala-Ala-Phe-MNA by NEP or mutant; Ki from ID50 = Ki(1+[S]/Km); 37°C, 20 mM MES buffer, pH 6.5
# [2] = target: secreted form of human neprilysin, mutant F563L (human); test: as above
# [3] = target: secreted form of human neprilysin (shNEP), wild type (human) (UniProt P08473); test: as above
# [4] = target: secreted form of human neprilysin, mutant F563V (human); test: as above
# [5] = target: secreted form of human neprilysin, mutant F563I (human); test: as above
# [6] = test system: Aß1–40; test: Rate of Aß1–40 hydrolysis (HPLC); assay type: biochemical; conditions: 24 µM Aß1–40, 37°C, 20 mM MES buffer, pH 6.5; disappearance of substrate by HPLC; at least triplicate
# Experimental: (§1) Cleavage of physiological peptides was measured via reverse phase high performance liquid chromatography (HPLC) following incubation of the purified NEP or its mutants with 15 µM insulin B chain (Sigma Aldrich), 24 µM Aß1–40 (Anaspec), or 64 µM leu-ENK (Sigma) in 100 µL of 20 mM MES, pH 6.5, at 37°C. Reactions were run in triplicate. HPLC was carried out in a Vydac C4 column using a linear gradient from 0.1% trifluoroacetic acid (TFA) in 95% water, 5% acetonitrile to 0.1% TFA in 50% acetonitrile/water at a flow rate of 1 mL/min. Peptides and hydrolysis products were detected at 214 nm and quantified by measuring peak areas. Peptides obtained from HPLC were analyzed on an Applied Biosystems 4800 MALDI TOF/TOF Proteomics Analyzer at the University of Kentucky Proteomics core. This facility is supported in part by grant P20RR020171 from the NIH/NCRR.
# (§2) Statistical analysis comparing wild-type NEP and its mutants was performed with Prism 4 software using a two-tailed paired t-test with a 95% confidence interval.
# [7] = target: insulin B chain; test: Insulin B chain as alternate substrate (competitive) inhibitor of Glut-Ala-Ala-Phe-MNA hydrolysis (Dixon plot); assay type: biochemical; conditions: insulin B chain 1 to 40 µM as competitive inhibitor of Glut-Ala-Ala-Phe-MNA hydrolysis by the enzyme form, 37°C, 20 mM MES, pH 6.5, ID50 converted to Ki
# Experimental: (§3) Kinetic constants for NEP and its mutants were obtained using the assay conditions noted above, but with Glut-Ala-Ala-Phe-MNA varied from 20 to 500 µM. Typically 12 data points were obtained. The data were fit to the Michaelis-Menten equation using Prism4 software. The Ki for insulin B chain was obtained by measuring the rate of Glut-Ala-Ala-Phe-MNA hydrolysis in the presence of varying concentrations of insulin B chain from 1 to 40 µM. Data were fit to a Dixon plot (1/rate versus [insulin B chain]) using Prism4 software and the ID50 obtained as the –x intercept, where ID50 corresponds to the concentration of insulin producing 50% inhibition. The actual Ki was obtained from the equation: ID50 = Ki (1+ [Glut-Ala-Ala-Phe-MNA]/KmGlut-Ala-Ala-Phe-MNA), [33].
# [8] = test system: leu-ENK; test: Rate of leu-ENK hydrolysis (HPLC); assay type: biochemical; conditions: 64 µM leu-ENK, 37°C, 20 mM MES buffer, pH 6.5; disappearance of substrate by HPLC; at least triplicate
# Experimental: as §1, §2
# [9] = test system: insulin B chain; test: Rate of insulin B chain hydrolysis (HPLC); assay type: biochemical; conditions: 15 µM insulin B chain, 37°C, 20 mM MES buffer, pH 6.5; disappearance of substrate by HPLC; at least triplicate
# Experimental: as §1, §2
# [10] = test system: leu-ENK and insulin B chain; test: Dual substrate assay: substrate preference leu-ENK versus insulin B chain; assay type: biochemical; conditions: ratio of rates, 15 µM insulin B chain and 64 µM leu-ENK together
# Experimental: (§4) The rate of cleavage of a substrate mixture is determined by both the kcat for that substrate as well by the affinity for the substrate. […] This is expected, given that each peptide acts as a competitive inhibitor of the other. […] That is the ratio for leu-ENK/insulin B chain cleavage is 3 for NEP^S546E compared to 6 for wild-type NEP.
# as §1
# [11] = test system: Aß1–40; test: Time course of product peak accumulation from Aß1–40; assay type: biochemical; conditions: 24 µM Aß1–40, 37°C, 20 mM MES, pH 6.5; 0-360 min, HPLC peak area, linear phase
# Experimental: Similar to the analysis conducted with insulin B chain, the linear rate of product accumulation was determined for each peak and normalized to the amount of protein in the reaction, Table 7 . Unlike the hydrolysis of insulin B chain, the hydrolysis of Aß1–40, even at the earliest time points, produced products resulting from multiple cleavage events. Out of the 12 identified product peaks, only 3 could be produced by a single cleavage. Rates for all cleavages were calculated and are given in Figure 4, B–D , but only the three putative primary cleavage sites can be compared.
# as §1
# [12] = Hydrolysis of synthetic substrate Glut-Ala-Ala-Phe-MNA by NEP and mutants (fluorogenic); assay type: biochemical; conditions: 37°C, 20 mM MES buffer, pH 6.5
# Experimental: Reactions of 400 µl contained 100 µM Glut-Ala-Ala-Phe-MNA, 1 µg of aminopeptidase and 15 to 100 ng of NEP or mutant NEP depending on their activity in 20 mM MES buffer, pH 6.5. Activity was monitored with a Spectra Max Gemini XS plate reader using an excitation wavelength of 340 nm and an emission wavelength of 425 nm.
# as §3
# [13] = test system: leu-ENK; test: Dual substrate assay: leu-ENK hydrolysis in presence of insulin B chain; assay type: biochemical; conditions: 15 µM insulin B chain and 64 µM leu-ENK together, 37°C, 20 mM MES buffer, pH 6.5
# Experimental: as §4, §1
# [14] = test system: insulin B chain; test: Time course of product peak accumulation from insulin B chain; assay type: biochemical; conditions: 15 µM insulin B chain, 37°C, 20 mM MES, pH 6.5; 0-180 min, HPLC peak area 214 nm, linear phase
# Source text: As a representative of the NEP^F563 and NEP^S546 mutants, we compared the cleavage profile of NEP^F563L and NEP^S546E to that of NEP using time course experiments, Figure 2 . By adjusting the amount of NEP mutant used, the rate of hydrolysis of insulin B chain by all NEP forms was virtually identical. […] Since rates were based on peak areas measured at 214 nm, which in turn is dependent on both the number of peptide bonds and the number of aromatic residues within a given peptide, only the observed rates of change for a particular peptide product can be compared between enzyme forms. A comparison of the rate of change of different peaks within the same enzyme form or between enzyme forms is not valid under our conditions of analysis.
# as §1
# [15] = test system: insulin B chain; test: Dual substrate assay: insulin B chain hydrolysis in presence of leu-ENK; assay type: biochemical; conditions: 15 µM insulin B chain and 64 µM leu-ENK together, 37°C, 20 mM MES buffer, pH 6.5
# Experimental: as §4, §1
# [16] = test system: Aß; conditions: transgenic mice; cited from earlier work
# Source text: Because of its multiple targets, NEP has been the focus of numerous studies attempting to modulate its activity for therapeutic purposes. One such target is the use of NEP to reduce Aß peptide levels in Alzheimer's disease, since the oligomerization of Aß has been linked to the etiology of this disease. […] In yet another application inhibitors of NEP were developed to block its “enkephalinase” activity to increase the concentra ...
molecule,measurement,setting,value
insulin B chain (from UniProt P01317 25-54) (peptide),Ki,[1],1.2 µM
same,Ki,[2],1.5 µM
same,Ki,[3],1.9 µM
same,Ki,[4],1 µM
same,Ki,[5],2.5 µM
B1,Rate of hydrolysis of Aß1–40,[6],198 ± 12 fmol/min/ng
same,Ki,[7],1.9 ± 0.2 µM
same,Rate of hydrolysis of leu-ENK,[8],1.90 ± 0.23 pmol/min/ng
same,Rate of hydrolysis of Insulin B Chain,[9],0.86 ± 0.13 pmol/min/ng
same,Ratio leu-ENK insulin B chain,[10],6 and 5.8
same,Accumulation rate of peak Aß 1–9 (single cleavage G^9-Y^10),[11],7 Δarea/min/ng
same,Accumulation rate of peak Aß 1–16 (single cleavage K^16-L^17),[11],22 Δarea/min/ng
same,Accumulation rate of peak Aß 1–17 (single cleavage L^17-V^18),[11],75 Δarea/min/ng
same,"Accumulation rate of peak Aß 4–9 (dual cleavages A^3-F^4, G^9-Y^10)",[11],10 Δarea/min/ng
same,"Accumulation rate of peak Aß 4–16 (dual cleavages A^3-F^4, K^16-L^17)",[11],7 Δarea/min/ng
same,"Accumulation rate of peak Aß 4–17 (dual cleavages A^3-F^4, L^17-V^18)",[11],9 Δarea/min/ng
same,"Accumulation rate of peak Aß 10–16 (dual cleavages G^9-Y^10, K^16-L^17)",[11],4 Δarea/min/ng
same,"Accumulation rate of peak Aß 10–17 (dual cleavages G^9-Y^10, L^17-V^18)",[11],18 Δarea/min/ng
same,"Accumulation rate of peak Aß 12–17 (dual cleavages E^11-V^12, L^17-V^18)",[11],3 Δarea/min/ng
same,"Accumulation rate of peak Aß 20–28 (dual cleavages F^19-F^20, K^28-G^29)",[11],11 Δarea/min/ng
same,"Accumulation rate of peak Aß 20–29 (dual cleavages F^19-F^20, G^29-A^30)",[11],16 Δarea/min/ng
same,"Accumulation rate of peak Aß 20–30 (dual cleavages F^19-F^20, A^30-I^31)",[11],34 Δarea/min/ng
same,Specific Activity (Glut-Ala-Ala-Phe-MNA cleavage),"[12]; 100 µM Glut-Ala-Ala-Phe-MNA, fluorescence ex 340 nm, em 425 nm",45.9 ± 2.5 pmol/min/ng
same,Km,"[12]; Glut-Ala-Ala-Phe-MNA 20 to 500 µM, Michaelis-Menten fit",51 ± 11 µM
same,"leu-ENK hydrolysis rate, dual substrate assay",[13],1.16 ± 0.06 pmol/min/ng
same,"leu-ENK hydrolysis, activity relative to the uninhibited value",[13]; numbers in parenthesis,0.61
same,Rate of accumulation of peak 1–5 (single cleavage H^5-L^6),[14],59 Δarea/min/ng
same,Rate of accumulation of peak 1–10 (single cleavage H^10-L^11),[14],163 Δarea/min/ng
same,Rate of accumulation of peak 1–11 (single cleavage L^11-V^12),[14],88 Δarea/min/ng
same,Rate of accumulation of peak 1–14 (single cleavage A^14-L^15),[14],167 Δarea/min/ng
same,Rate of accumulation of peak 1–16 (single cleavage Y^16-L^17),[14],31 Δarea/min/ng
same,"Rate of accumulation of peak 15–23 (two cleavages A^14-L^15, G^23-F^24)",[14],23 Δarea/min/ng
same,Rate of accumulation of peak 15–30 (single cleavage A^14-L^15),[14],135 Δarea/min/ng
same,"Rate of accumulation of peak 17–24 (two cleavages Y^16-L^17, F^24-F^25)",[14],33 Δarea/min/ng
same,Rate of accumulation of peak 17–30 (single cleavage Y^16-L^17),[14],171 Δarea/min/ng
same,Rate of accumulation of peak 24–30 (single cleavage G^23-F^24),[14],268 Δarea/min/ng
same,"Insulin B Chain hydrolysis rate, dual substrate assay",[15],0.20 ± 0.04 pmol/min/ng
same,"Insulin B Chain hydrolysis, activity relative to the uninhibited value",[15]; numbers in parenthesis,0.23
same,Effect of NEP expression on cognitive deficits typically attributed to AD,[16],ameliorates cognitive deficits
same,Effect of NEP expression on level of Aß,[16],decreases the level of Aß
